# Laboratory results from paper PMC11514473, “The transition state for coupled folding and binding of a disordered DNA binding domain resembles the unbound state” (Nucleic Acids Research, 2024).
# Changes are numbered by the printed parent chain.
# Experiments:
# Experiment in all cases: stopped-flow fluorescence (koff/kon); 10 mM Mg2+; 10 mM MES pH 6.5, 150 mM NaCl, 10 mM MgCl2, 0.05% Tween-20, 25 C; NMR: 10 mM Tris-d11, 150 mM NaCl, 10 mM MgCl2, 1 mM NaN3, 5% D2O (NOE at 25 C)
# Settings in all cases: protein: recombinant; tags: extra N-terminal Gly; chain copies: 2; label: 5' Alexa Fluor 488; hairpin (self-annealing, 11 bp stem, CCCC loop)
# 285bZIP E295A/E299A = biological target: T1, 285bZIP E295A/E299A (human, UniProt P16220-1 285-339, C300S;C310S;C337S;E295A;E299A)
# T1 sequence: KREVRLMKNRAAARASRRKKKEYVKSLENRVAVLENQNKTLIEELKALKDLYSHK
# 285bZIP R302A = biological target: T2, 285bZIP R302A (human, UniProt P16220-1 285-339, C300S;C310S;C337S;R302A)
# T2 sequence: T1 sequence with A11E, A15E, R18A
# 285bZIP E306G = biological target: T3, 285bZIP E306G (human, UniProt P16220-1 285-339, C300S;C310S;C337S;E306G)
# T3 sequence: T1 sequence with A11E, A15E, E22G
# 285bZIP E306A = biological target: T4, 285bZIP E306A (human, UniProt P16220-1 285-339, C300S;C310S;C337S;E306A)
# T4 sequence: T1 sequence with A11E, A15E, E22A
# 285bZIP E299A = biological target: T5, 285bZIP E299A (human, UniProt P16220-1 285-339, C300S;C310S;C337S;E299A)
# T5 sequence: T1 sequence with A11E
# 285bZIP K309A = biological target: T6, 285bZIP K309A (human, UniProt P16220-1 285-339, C300S;C310S;C337S;K309A)
# T6 sequence: T1 sequence with A11E, A15E, K25A
# 285bZIP E299A/E306A = biological target: T7, 285bZIP E299A/E306A (human, UniProt P16220-1 285-339, C300S;C310S;C337S;E299A;E306A)
# T7 sequence: T1 sequence with A11E, E22A
# 285bZIP E299G = biological target: T8, 285bZIP E299G (human, UniProt P16220-1 285-339, C300S;C310S;C337S;E299G)
# T8 sequence: T1 sequence with A11E, A15G
# 285bZIP E299G/E306G = biological target: T9, 285bZIP E299G/E306G (human, UniProt P16220-1 285-339, C300S;C310S;C337S;E299G;E306G)
# T9 sequence: T1 sequence with A11E, A15G, E22G
# 285bZIP E295G/E299G = biological target: T10, 285bZIP E295G/E299G (human, UniProt P16220-1 285-339, C300S;C310S;C337S;E295G;E299G)
# T10 sequence: T1 sequence with A11G, A15G
binder,measurement,setting,value
CCTGACGTCAGCCCCCTGACGTCAGG (structured_DNA) [AlexaFluor488-CREh],Kd,285bZIP E295A/E299A,0.102 ± 0.008 nM
same,Kd,285bZIP R302A,13.9 ± 1.8 nM
same,Kd,285bZIP E306G,3.9 ± 0.2 nM
same,Kd,285bZIP E306A,0.139 ± 0.012 nM
same,Kd,285bZIP E299A,0.0711 ± 0.0011 nM
same,Kd,285bZIP K309A,2.12 ± 0.08 nM
same,Kd,285bZIP E299A/E306A,0.0415 ± 0.0008 nM
same,Kd,285bZIP E299G,2.72 ± 0.15 nM
same,Kd,285bZIP E299G/E306G,54 ± 4 nM
same,Kd,285bZIP E295G/E299G,170 ± 50 nM
